Assay [1] has as its target B.1.1.7 Spike (SARS-CoV2).
Assay [2] has as its target B.1.351 Spike (SARS-CoV2).
The target in assay [3] is P.1 Spike (SARS-CoV2).
The target of assay [4] is B.1.1.7 Spike (SARS-CoV-2 spike protein, UK variant B.1.1.7) (SARS-CoV-2).
Assay [5] deals with B.1.351 Spike (SARS-CoV-2 spike protein, South African variant B.1.351) (SARS-CoV-2).
The target of assay [6] is D614G Spike (SARS-CoV-2 spike protein, D614G) (SARS-CoV-2).
In assay [7] the target is P.1 Spike (SARS-CoV-2 spike protein, Brazilian variant P.1) (SARS-CoV-2).

B1: Ab_19 scFv-Fc (scFv, V domains shown)
VH: EVQLVESGAEVKKPGESLKISCKGSGYSFTSYWIGWVRQMPGKGLEWMGIIYPGDSDTRYSPSFQGQVTISADKSISTAYLQWSSLKASDTAMYYCARRGDLDAFDIWGQGTMVTVSS
VL: QPGLTQPPAASGTPGQRVTVSCSGASANIGSNAVSWFKQFPETAPRLLISGNTHRPSGVPDRVSGSKSGTSASLTISGLQSDDEADYYCAAWDDSLNGYVFGSGTKVTVL
One may read the Kd as a measure of binding affinity in units of concentration. The low end stands for tighter binding, the high end for weaker binding. With B1, the Kd turned out to be 10.3 pM in assay [1], 11.8 pM in assay [2] and 8.94 pM in assay [3]. The values for the Response in assay [1], in assay [2] and in assay [3] were 0.203, 0.258 and 0.204, respectively.

B2: Ab_18 scFv-Fc (scFv, V domains shown)
VH: EVQLVQSGGGVVQPGRSLRVSCAASGFSFSRYGMHWVRQAPGKGLEWVAFIRHDGSKKYYADSVEGRFTISRDNSRNTVSLEMNSLRGEDTAVYYCAKDGRLEAALDDWGQGTLVTVSS
VL: NFMLTQPHSMSGSAGKTVTVSCIRSSGSIANNFVQWYQQRPGSAPTTVIYEDNQRPSGVPDRFSGSIDSSSNSASLTISGLKTEDEADYYCQSYDSSNLVFGGGTRLTVL
Take B2: the Kd in assay [1] amounted to 9.28 pM; in assay [2] it was 1340 pM; in assay [3] it was 2.97 pM. Moreover, the values for the Response in assay [1], in assay [2] and in assay [3] were 0.256, 0.12 and 0.109, respectively.

B3: Ab_23 scFv-Fc (scFv, V domains shown)
VH: EVQLVQSGAEVKKPGSSVKVSCRSSGGTFSTYGITWVRQAPGQGLEWMGRIIPSLGIPNYAQKFQGRVTITADTSVSTAWMELSSLESDDTAIYYCARENIDLATNDFWGQGTLVTVSS
VL: QSALTQPPSASGSPGQSVTISCTGTSRDIGAYGYVSWYQQVPGKAPKLIIYEVRNRPSGVSSRFSGSKSGNTASLTISGLQAEDEADYYCSSYTSSSTLDVVFGGGTKLTVL
On to B3, for which the Kd is 9.11 pM in assay [1], 7.58 pM in assay [2] and 8.79 pM in assay [3]. Also, the Response in assay [1] came out at 0.135; in assay [2], 0.189; in assay [3], 0.123.

B4: Ab_27 scFv-Fc (scFv, V domains shown)
VH: QVQLVQSGTEVKKPGASVKVSCKASGYSFTGSHLHWVRQAPGQGLEWMGWINPDSGVINYAQKFQGRVTLTRDTSISTAYMELSGLRSDDTAVYYCARDKAIGYVWALDYWGQGTLVTVSS
VL: QSALTQPPSVSGSPGQSVTISCTGTSSDVGTYNRVSWYQQPPGKAPKLMIYEVSNRPSGVSNRFSGSKSGNTASLTISGLQAEDEADYYCSSYTRTFTYVFGTGTKVTVL
Turning to B4, the Kd in assay [1] worked out at 1.57 pM; in assay [2], 1.25 pM; in assay [3], 8.9 pM. In addition, the Response in assay [1] is 0.281; in assay [2], 0.0974; in assay [3], 0.0795.

B5: Ab 38 scFv-Fc (scFv, V domains shown)
VH: QVTLKESGPTLVKPTQTLTLTCTFSGFSLTTSGVSVGWIRQPPGKALEWLALIHWDDDKRYSPSLRSRLTITRDTSKNQVVLTVTDMDPADTGTYYCASFIMTVYAEYFEDWGQGTLVTVSS
VL: EIVLTQSPATLSVSPGERATLSCRASQSVSSNLAWYQQKPGQAPRLLMYDVSTRATGIPARFSGSGSGTEFSLTISSLQSEDFAVYYCQQRGAWPLTFGGGTKVEIK
As to B5, the Kd in assay [4] was found to be 1.47 pM; in assay [5], 7.62 pM; in assay [6] it was 3.37 pM; in assay [7], 7.23 pM. Further, the Response in assay [4] came to 0.267; in assay [5] it was 0.234; in assay [6] it was 0.328; in assay [7] it was 0.228.

B6: Ab_26 scFv-Fc (scFv, V domains shown)
VH: QVQLVQSGGGLVQPGRSLRLSCAASGFTFDDYAMHWVRQVPGKGLEWVSGIDWNSGVIGYADSVKGRFTISRDNAKNSLYLQMNSLRAEDTALYYCAKDAYSYGFLGAFDIWGQGTMVTVSS
VL: LPVLTQPPSVSVAPGQTASITCGGDNIRTKGVHWYQQKPGQAPLLVIYYASDRPSGIPERFSGSSSGNTATLTISRVEAGDEADYYCQVWDSSSDLVVFGGGTTLTVL
As to B6, the Kd in assay [1] was determined as 1.37 pM; in assay [2], 1.78 pM; in assay [3], 10.3 pM. Moreover, the results for the Response in assay [1], in assay [2] and in assay [3] were 0.336, 0.214 and 0.188, respectively.

B7: Ab 30 scFv-Fc (scFv, V domains shown)
VH: QVQLVQSGGGVVQPGKSLRLSCTASGFTFSDFPIHWVRQAPGKGLEWVGVISYDGNIKYYGDSVKGRFTISRDNAKNSLYLQMNSLRVEDTAVYYCARGGSSFDIWGQGTTVTVSS
VL: SYELTQPPSVSEAPRQRVTISCSGSTSNIGNNAVSWYQHLPGKAPKLLIYYNERLPSGVSDRFSGSKSGTSASLAISGLRSEDEADYYCAAWDDSLSGHVVFGGGTKLTVL
For B7, the values for the Kd in assay [4], in assay [5] and in assay [7] were under 1 pM, under 1 pM and 9.02 pM, respectively. Besides, the Response in assay [4] was determined as 0.139; in assay [5] it was 0.0883; in assay [7], 0.0766.

B8: Ab_20 scFv-Fc (scFv, V domains shown)
VH: QVQLVQSGGGSVKPGGSLRLSCAASGYRLSDYYMHWVRQAPGKGLEWVANIKQDGSEKYYVDSVKGRFTISRDNAKNSLYLQMNSLRAEDTAVYYCARVRGWSRGYFDYWGQGTLVTVSS
VL: NFMLTQPHSVSESPGKTVTISCTGSSGSIASNYVQWYQQRPGSAPTTVIYEDNQRPSGVPDRFSGSIDSSSNSASLLISGLKTEDEADYYCQSYDSSNHWVFGGGTKLTVL
Consider B8, for which the figures for the Kd in assay [1], in assay [2] and in assay [3] were 2.6 pM, 7.03 pM and 11.2 pM, respectively. For the same molecule, the Response in assay [1] is 0.173; in assay [2], 0.213; in assay [3], 0.17.

B9: Ab_25 scFv-Fc (scFv, V domains shown)
VH: QVQLVQSGGGLVQPGGSLRLSCAASGFTFSSYWMSWVRQAPGKGLEWVANIKQDGSEKYYVDSVKGRFTISRDNAKNSLYLQMNSLRAEDTAVYYCARGFYYYGAFDIWGQGTTVTVSS
VL: NFMLTQPHSVSESPGKTVTISCTGSSGSIASNYVQWYQQRPGSAPTTVIYEDNQRPSGVPDRFSGSIGSSSNSASLTISGLKTEDEADYYCQSYDSSNHWVFGGGTKLTVL
For B9, the Kd in assay [1] amounted to 427 pM; in assay [2], 1.13 pM; in assay [3] it was 8.72 pM. In addition, the values for the Response in assay [1], in assay [2] and in assay [3] were 0.0668, 0.0577 and 0.0396, respectively.

B10: Ab_28 scFv-Fc (scFv, V domains shown)
VH: QVTLKESGPGLVNPSETLSLTCTVSGASISNSFWSWIRQSPGKGLEWIGYTSYSGNSIYNPSLKSRLTMSIDTSKNQLSLNLRSLTAADTAVYYCARREWIKGHFDYWGQGTLVTVSS
VL: NFMLTQPHSVSESPGKTVTISCTGSGGSIASNYVQWYQQRPGSAPTTVIYEDNQRPSGVPDRFSGSIDSSSNSASLTISGLKTEDEADYYCQSYDSSNPVVFGGGTKLTVL
Turning to B10, the results for the Kd in assay [1], in assay [2] and in assay [3] were 1.49 pM, 6.38 pM and 8.91 pM, respectively. Also, the figures for the Response in assay [1], in assay [2] and in assay [3] were 0.206, 0.12 and 0.102, respectively.

B11: Ab 31 scFv-Fc (scFv, V domains shown)
VH: QVQLVQSGAEVKKPGSSVKVSCKASGGTFSSYTISWVRQAPGQGLEWMGGIIPILGTPNYAQKFQDRVAITADKSTSTAYMELSSLRSEDTAVYYCAVGSGWYSGFDYWGQGTLVTVSS
VL: NFMLTQPHSVSESPGKTVTISCTGSSGSIASNYVQWYQQRPGSAPTTVIYEDSQRPSGVPDRFSGSIDSSSNSASLTISGLKTEDEADYYCQSFHNSNPVIFGGGTKLTVL
For the molecule B11, the Kd is under 1 pM in assay [4], under 1 pM in assay [5] and 8.97 pM in assay [7]. Further, the Response in assay [4] came out at 0.135; in assay [5], 0.09; in assay [7] it was 0.0789.

B12: Ab 29 scFv-Fc (scFv, V domains shown)
VH: QVQLQQSGPGLVKPSQTLSLTCAISGDSVSSYSDAWNWIRQSPSRGLEWLGRTYYRSKWYNDYAVSVKSRITINPDTSKNQFSLQLSSVTPEDTAVYYCAREIVATTPFRNYYYGMDVWGQGTTVTVSS
VL: NFMLTQPHSVSESPGNTVTISCTRTSGSIASNYVQWYQQRPGSSPTTVIFQDKLRPSGVPDRFSGSIDSSSNSASLTISGLKTEDEADYYCQSYDSSSLWVFGGGTKLTVL
In the case of B12, the Kd was determined as 693 pM in assay [4], 371 pM in assay [5] and 8.45 pM in assay [7]. The figures for the Response in assay [4], in assay [5] and in assay [7] were 0.118, 0.0418 and 0.0232, respectively.

B13: Ab_21 scFv-Fc (scFv, V domains shown)
VH: QVQLVQSGGGLVQPGGSLRLSCATSGFTFDDYAMHWVRQAPGKGLEWVSGISWNSGSIGYVDSVKGRFTISRDNRNNKVYLQMNNLRAEDTAVYYCARDWWGSIDHWGLGTLVTVSS
VL: QSALTQPRSVSGSPGQSVTISCTGTSSDVGGYDYVSWYQQHPGKAPKLIIYDVSKRPSGVPDRFSGSKSGNTASLTVSGLQAEDEADYYCSSYTSSSPVVFGGGTKLTVL
As for B13, the Kd in assay [1] amounted to 1.47 pM; in assay [2], 369 pM; in assay [3], 9.52 pM. For the same molecule, the Response worked out at 0.199 in assay [1], 0.148 in assay [2] and 0.103 in assay [3].

Values taken from patent US20240409617A1.
